B1: TPR t1 (parent)
chain: GACCAAUCUGCCCUCAGAGCUCGAGAACAUCUUCGGAUGCAGAGGAGGCAGGCUUCGGUGGCGCGAUAGCGCCAACGUCCUCAACCUCCAAUGCAUCCCACCACAUGAUGAUGCCUGAAGAGCCUUGGUUUUUUG

Variants of: B1
Test: polymerase ribozyme fitness, log enrichment relative to wild type (log ratio); higher = more active; in vitro selection for triplet polymerase activity
Outline: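 Mutant libraries of both subunits of a heterodimeric triplet polymerase ribozyme were PCR-built, transcribed, and selected once in triplicate, with frozen incubation at −7 °C and capture of gel-excised extended constructs on streptavidin beads before RT-PCR. Illumina sequencing of input and output libraries was filtered to genotypes with ≥10 input reads and ≥1 read per output. Fitness is the logarithm of genotype enrichment over wild-type enrichment, using inverse-variance-weighted replicate averages. The logarithm is base 2.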

| Variant | polymerase ribozyme fitness (log ratio) |
| --- | --- |
| G45C G51U G57U C99A G117C | -7.29 |
| G45C G69U C82A G127A | -3.34 |
| G47U C101U U125G U126C | -2.99 |
| G47A G71C | -1.56 |
| G45C U126A | -2.8 |
| G45U C85G G122A | -3.83 |
| G45U C56A G128C | -5.66 |
| G45A G71U C115G | -2.11 |
| G47A A50U G60C G77A | -5 |
| G45U G63U G113A | -3.01 |
| G47A G60U G93C C101A | -4.1 |
| G45U C123U G127U | -1.39 |
| A46U U54G C72A C82A G110U | -4.48 |
| G45U C73U U87A A105U G135C | -2.69 |
| G47A C102G | -5.8 |
| G47A C102A | -2.65 |
| G45A G52A C89U U92A G120U | -3.99 |
| A46U C53U A84C C88U | -1.14 |
| G45C A100G G120A U133A | -2.23 |
| A46G C73U C88A U130A | -3.03 |
| G45C A84G C97A | -6.72 |

| Variant | polymerase ribozyme fitness (log ratio) |
| --- | --- |
| G47C A111G C123U | -3.06 |
| G47C C72U C94U | -2.45 |
| G45C G69C U133A | -2.27 |
| G47A C86A A90G G117U G120C | -0.329 |
| G45U G135U | -2.03 |
| A46U G71U | -1.16 |
| A46G G61A A100C U132C | -0.683 |
| G45U G48A | -1.51 |
| G45C A46C A105C | -5.01 |
| G45C U54C C73A U81A G93C A111C | -4.76 |
| A46C C115G G117A | -4.09 |
| G45U C73U C79A | -2.93 |
| A46C C56U G63A C114G G127C U129A | -5.93 |
| G47U C53U C79A | -4.4 |
| G45U C94U C102U | -3.33 |
| G45C U87C | -0.513 |
| G45U G60U | -0.287 |
| G45U C89U U92A U106A U133G | -3.32 |
| G47U G57A | -1.73 |
| G45U G77U G93U G120U | -3.3 |
| A46U C70A C85U | -3.76 |

| Variant | polymerase ribozyme fitness (log ratio) |
| --- | --- |
| G47C G77C C98U G113C U130C | -6.15 |
| G45C C72U A90U G128C | -4.85 |
| G45C G61C U131G | -1.96 |
| G45U C64U G77U C79U C114G | -4.61 |
| G47U C80G U87A C101U C123A G127A | -5.76 |
| A46U G52U C123A | -3.01 |
| G47A A103C G122A | -6.8 |
| A46C C62U C86U C97U A111U C124U | -5.27 |
| G47U G58C C82U C86U | -1.04 |
| A46U G135U | -1.71 |
| A46U G135C | -1.33 |
| G47U C49G | -0.991 |
| A46U C104U | -0.991 |
| A46U G63C | -1.29 |
| G45U G110U | -2.75 |
| A46U C94G C98U | -4.76 |
| G45U C72U U87A | -1.19 |
| A46C A100U U131G | -1.22 |
| G45U C70A C123U | -1.23 |
| G45A U59A C104U | -0.336 |
| A46C G48U G113A | -3 |

| Variant | polymerase ribozyme fitness (log ratio) |
| --- | --- |
| A46G A50G | 0.425 |
| G47A C85G G113A U132A | -2.45 |
| A46C C53U C56A U112A | 0.259 |
| G47U A50U U59C C73A U78A U133A | -2.31 |
| G47C C70U | -2.2 |
| G47A C53U A118U | -0.687 |
| G45A G69A | -3.01 |
| G47U C76A C79A C80G C94G A100C U116G C124U U129A | -5.73 |
| A46U G71C U78A C86A | -1.63 |
| G47U C124A U130G | -0.902 |
| G47U C115A | -2.9 |
| A46G G63U A121U U126A | 0.154 |
| A46U C49U | -1.49 |
| A46C C56G C70A | -5.02 |
| G47U C80A G113A | -6.73 |
| G45U C86U U87A C124U U130C | -1.19 |
| G47A G61A U116A U129A | -4.01 |
| A46U U109A | -6.04 |
| G45U A74G U132A | -2.04 |
| G45U C72A C88A G93A G107U A111C | -5.12 |
